We go through one protein from patent US5686294A.

Substrate in the series: O=C(O)CC(=O)C(=O)O
Briefly: purified protein, by the assay type. As to conditions: other: recombinant enzyme from Escherichia coli JM109 (pMDH1) (Example 6, Table 4).

What is called Km is the substrate concentration at which the rate is half of its maximum.

B1: heat-resistant malate dehydrogenase (MAD) of Bacillus stearothermophilus ATCC 12016 gene, produced by Escherichia coli JM109 (pMDH1), amino acid sequence SEQ … (protein)
chain: MAMKRKKISVIGAGFTGATTAFLLAQKELGDVVLVDIPQLENPTKGKALDMLEASPVLGFDANIIGTSDYADTADSDIVVITAGIARKPGMSRDDLVTTNQKIMKQVTKEVVKYSPNCYIIVLTNPVDAMTYTVFKESGFPKNRVIGQSGVLDTARFRTFVAEELNISVKDVTGFVLGGHGDDMVPLVRYSYAGGIPLEKLIPKDRLDAIVERTRKGGGEIVNLLGNGSAYYAPAASLVEMVEAILKDQRRILPAIAYLEGEYGYEGIYLGVPTILGGNGIEKVIELELTEEEKARSPNPSNPLKMSCACWNSGEAKIRALPGFLSHSQ
B1: the Km stood at 4.3 µM.
